Data reported in patent US20220211858A1, “TUBULAR SUPRAMOLECULAR POLYMERS” (priority 2019, published 2022).
Like-named read-outs stand apart in the source and are kept apart here.

Key:
HT-29 cells [1] = experiment: Antitumor efficacy of SAPDs at near MTD on a HT-29 tumor model; conditions: day 28; SAPD 1 12 mg/kg, SAPD 2-4 36 mg/kg i.v. days 1, 5, 9; irinotecan 100 mg/kg i.p. days 1, 8, 15
Experimental: Antitumor efficacy study of SAPDs at near MTD on a HT-29 tumor model. HT-29 tumor model was established as described above. When the averaged tumor size reached 70-110 mm^3, mice were randomly divided into six groups (n=5 for each group). Four different SAPDs were all i.v. dosed at near or slightly lower than their estimated MTDs. […] The irinotecan (i.p. injection, 100 mg/kg at days 1, 8 and 15) and the PBS groups were used as controls. All other protocols were similar to those in the above-mentioned efficacy study.

[2] = CD measurement of SAPD stability in plasma/serum environments; type: physicochemical, rat; conditions: 200 μM in rat plasma, FBS, mice plasma, aged overnight
Experimental: CD measurement of SAPDs in physiological environments. Stock solutions of SAPDs were prepared at 2 mM and aged overnight. The solutions were diluted to 200 μM in 10% fetal bovine serum (FBS), 10% mice plasma and 10% rat plasma, aged overnight before CD measurement. To study the kinetic stability of the assembled SAPDs upon dilution, the stock solutions of SAPD 1 and 2 were diluted to 100 μM, 50 μM, 25 μM, 10 μM, and 5 μM in 10% rat plasma. The CD spectra were recorded at 5 min, 1 h, 4 h, and 12 h. All the CD spectra were recorded from 300 to 450 nm using a 1 mm path length quartz cell. The spectra were collected and normalized from ellipticity (mdeg) to molar ellipticity (deg·cm2·dmol^−1).
Stability of SAPDs in Protein Environments. The interactions of nanoparticles with serum proteins are known to impact the disassociation of supramolecular assemblies in biologically relevant environment. To assess the stability of assembled SAPDs in more complex biological media, we performed CD experiments to investigate their long-term stability in various serum environments. SAPDs solutions (2 mM) were diluted using rat plasma (FIG. 21C), fetal bovine serum (FBS), and mice plasma to yield a final concentration of 200 μM, which were then aged overnight before CD measurement was taken. […] We also performed experiments to assess their kinetic stability upon plasma dilution, mimicking the dissociation process of SPs after intravenous injection. Solutions of SAPD 1 and 2 (2 mM) were diluted to 100 μM, 50 μM, 25 μM, 10 μM, and 5 μM in rat plasma, and time-dependent CD spectra were recorded at 5 min, 1 h, 4 h, and 12 h. […] At 12 h, the decrease reached 22% and 33%, respectively.

[3] = Circulation studies of SAPDs in rats; type: in vivo, Sprague Dawley (SD) rats; conditions: 10 mg/kg i.v.
Experimental: Circulation studies of SAPDs in rats. Female Sprague Dawley (SD) Rats (200-250 g) were randomly grouped into four groups with three rats in each group. SAPDs were all intravenously (i.v.) dosed at 10 mg/kg (CPT equivalent). The dosing volumes of SAPDs were estimated by a ratio of 1 mL for a 200 g rat. The blood samples were collected at 5 min, 15 min, 30 min, 1 h, 2 h, 4 h, 8 h, and 12 h, which were immediately centrifuged to take plasma for further analysis and stored at −80° C. The plasma proteins were precipitated using similar protocols as mentioned above in drug release section and the determination of SAPDs and free CPT in the plasma by UPLC also used the same conditions.
Estimation of SAPD concentration in plasma upon injection. To calculation the concentration after dilution, we simply set the following parameters: body weight of mice (20 g), dosing volume of mice (200 μL), blood volume of mice (1.8 mL), body weight of rat (200 g), dosing volume of mice (1 mL), blood volume of mice (18 mL) and the dosage for both mice and rats (10 mg/kg).

HT-29 cells [4] = conditions: mouse, in vivo
Text: Antitumor efficacy study of SAPDs at the same dose on a HT-29 tumor model. […] When the averaged tumor size reached 75-95 mm^3, mice were randomly divided into six groups. […] The tumor volumes and body weights were monitored and recorded every two or three days. The tumor volume was estimated by measuring the length and width with calipers and using the equation “tumor volume=(length×width^2)/2”. Mice were euthanized once the tumor volume reached 1000 mm^3.

[5] = Maximum tolerated dose (MTD) dose escalation study; type: in vivo, athymic nude mice; conditions: for Maximum % BW loss: n=3
Experimental: Maximum tolerated dose (MTD) studies. MTD of SAPD 1 has been previously determined in our lab (Table 1). MTDs of other SAPDs were determined by dose escalation studies in healthy female athymic nude mice (Charles River, 12-13 weeks old). A single intravenous (i.v.) injection of SAPD was dosed at day 1 and the body weights of each mouse (n=3) were recorded every day for six days and every the other day until two weeks. The dosing volume was determined based upon a ratio of 200 μL for a 20 g mouse. Doses of SAPDs used in the studied were 108, 72, 54, 45, 36 and 18 mg/kg (CPT equivalent).

SMILES: CC[C@]1(OC(=O)OCCSSC[C@@H](NC(C)=O)C(=O)N[C@@H](CCCCNC(=O)[C@@H](CSSCCOC(=O)O[C@]2(CC)C(=O)OCc3c2cc2n(c3=O)Cc3cc4ccccc4nc3-2)NC(C)=O)C(=O)N[C@@H](CCCCNC(=O)CCOCCOCCOCCOCCOC)C(=O)N[C@@H](CCCCNC(=O)CCOCCOCCOCCOCCOC)C(=O)N[C@@H](CCCCNC(=O)CCOCCOCCOCCOCCOC)C(=O)N[C@@H](CCCCNC(=O)CCOCCOCCOCCOCCOC)C(=O)N[C@@H](CCCCNC(=O)CCOCCOCCOCCOCCOC)C(=O)N[C@@H](CCCCNC(=O)CCOCCOCCOCCOCCOC)C(N)=O)C(=O)OCc2c1cc1n(c2=O)Cc2cc3ccccc3nc2-1 [SAPD 3]
- mean tumor volume (HT-29 cells [1]): 322 mm^3
- change of CD absorptions versus aqueous solution [2]: some slight changes
- total CPT concentration in plasma ([3]; 1 h): 2.8 µM
- total CPT concentration in plasma ([3]; 2 h): 1.3 µM
- mean tumor volume (HT-29 cells [4]): 304 mm^3
- median survival (HT-29 cells [4]): 42 days
- MTD ([5]; female, athymic nude, mouse, in vivo, iv, single i.v. injection, CPT equivalent, healthy athymic nude mice): 72 mg/kg
- Survival/Total ([5]; single i.v. dose 18 mg/kg): 3/3
- day of maximum BW loss ([5]; single i.v. dose 18 mg/kg): 4 days
- Maximum % BW loss ([5]; single i.v. dose 18 mg/kg (CPT equivalent)): 5.5%
- Survival/Total ([5]; single i.v. dose 36 mg/kg): 3/3
- day of maximum BW loss ([5]; single i.v. dose 36 mg/kg): 4 days
- Maximum % BW loss ([5]; single i.v. dose 36 mg/kg (CPT equivalent)): 1.4%
- Survival/Total ([5]; single i.v. dose 45 mg/kg): 3/3
- day of maximum BW loss ([5]; single i.v. dose 45 mg/kg): 4 days
- Maximum % BW loss ([5]; single i.v. dose 45 mg/kg (CPT equivalent)): 2.5%
- Survival/Total ([5]; single i.v. dose 54 mg/kg): 3/3
- day of maximum BW loss ([5]; single i.v. dose 54 mg/kg): 1 days
- Maximum % BW loss ([5]; single i.v. dose 54 mg/kg (CPT equivalent)): 1.6%
- Survival/Total ([5]; single i.v. dose 72 mg/kg): 3/3
- Maximum % BW loss ([5]; single i.v. dose 72 mg/kg (CPT equivalent)): 0%
- Survival/Total ([5]; single i.v. dose 108 mg/kg): 2/3
